T1: mouse 5T4 (mouse, UniProt Q9Z0L0 32-426)
T1 construct: whole, on cells; also called murine 5T4
T1 sequence (looked up): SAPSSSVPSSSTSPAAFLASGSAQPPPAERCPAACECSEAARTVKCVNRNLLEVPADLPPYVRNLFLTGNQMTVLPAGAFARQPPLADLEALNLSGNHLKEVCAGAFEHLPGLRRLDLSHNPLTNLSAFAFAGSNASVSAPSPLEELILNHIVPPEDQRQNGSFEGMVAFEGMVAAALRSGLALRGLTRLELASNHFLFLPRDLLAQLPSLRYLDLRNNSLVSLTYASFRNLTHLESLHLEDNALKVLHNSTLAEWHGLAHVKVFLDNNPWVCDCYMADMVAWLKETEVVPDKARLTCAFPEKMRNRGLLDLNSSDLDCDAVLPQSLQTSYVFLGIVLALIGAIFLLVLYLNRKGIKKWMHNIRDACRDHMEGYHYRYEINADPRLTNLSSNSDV

T2: human 5T4 on transfected cells (human, UniProt Q13641 32-420)
T2 construct: whole, on cells; for B16 and A9 cells only a 5T4 construct is named; also called 5T4-transfected B16 cells; B16-5T4
T2 sequence (looked up): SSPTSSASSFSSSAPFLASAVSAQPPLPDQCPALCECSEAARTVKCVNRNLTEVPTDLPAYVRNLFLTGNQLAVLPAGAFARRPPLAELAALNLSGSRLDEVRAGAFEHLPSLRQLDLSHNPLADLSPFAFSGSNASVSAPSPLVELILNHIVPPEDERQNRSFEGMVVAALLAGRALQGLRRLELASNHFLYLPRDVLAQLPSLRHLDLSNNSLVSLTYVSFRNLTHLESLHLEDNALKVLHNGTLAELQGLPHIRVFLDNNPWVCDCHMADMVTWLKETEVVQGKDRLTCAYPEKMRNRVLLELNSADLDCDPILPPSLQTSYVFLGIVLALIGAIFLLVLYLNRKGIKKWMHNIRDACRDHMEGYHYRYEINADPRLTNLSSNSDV

T3: 5T4-Fc (human, UniProt Q13641 32-355, limits assumed)
T3 construct: obtained from Peter L. Stern, University of Manchester; also called h5T4-Fc; recombinant 5T4
T3 sequence (looked up): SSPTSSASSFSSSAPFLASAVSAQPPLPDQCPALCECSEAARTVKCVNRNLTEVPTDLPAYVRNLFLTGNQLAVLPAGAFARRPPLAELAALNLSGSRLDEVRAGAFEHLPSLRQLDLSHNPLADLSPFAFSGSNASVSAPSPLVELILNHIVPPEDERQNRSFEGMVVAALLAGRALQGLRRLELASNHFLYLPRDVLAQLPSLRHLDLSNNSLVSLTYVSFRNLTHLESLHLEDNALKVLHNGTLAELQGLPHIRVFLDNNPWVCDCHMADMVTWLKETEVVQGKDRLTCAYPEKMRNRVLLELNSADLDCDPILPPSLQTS

T4: 5T4 (immobilised for SPR) (UniProt Q13641 32-355, limits assumed, biotinylated on the MASS-1 platform)
T4 construct: also called biotinylated 5T4
T4 sequence (looked up): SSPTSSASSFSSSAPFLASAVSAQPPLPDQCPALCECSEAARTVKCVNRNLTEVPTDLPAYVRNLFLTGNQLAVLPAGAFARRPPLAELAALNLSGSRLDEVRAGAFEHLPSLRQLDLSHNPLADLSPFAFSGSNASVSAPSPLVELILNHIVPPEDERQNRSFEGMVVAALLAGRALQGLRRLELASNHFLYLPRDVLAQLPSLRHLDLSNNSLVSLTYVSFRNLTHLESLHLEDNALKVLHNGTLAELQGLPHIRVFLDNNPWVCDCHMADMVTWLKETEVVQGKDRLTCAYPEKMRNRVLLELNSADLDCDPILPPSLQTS


Experiments:
[1] = target: T5, cynomolgus 5T4 (Macaca mulatta (cynomolgus)); test: flow cytometry, CHO cells with cynomolgus 5T4 against CHO cells with human 5T4
T5 construct: whole, on cells; stably transfected CHO cells; also called cyno5T4; cy5T4
Procedure: (§1) The potency of 5T4 antibodies in binding to cynomolgus 5T4 was determined by flow cytometry. CHO cells were stably transfected with […] (cynomolgus) 5T4. […] Samples were analysed either on a FACSCalibur or a FACSverse (BD Biosciences, Heidelberg, Germany) and mean fluorescence intensity (MFI) determined. […] To compare the EC50 values between human and cynomolgus 5T4, the cy5T4/hu5T4 ratio was calculated from the experiment with the full dose-response.

[2] = target: T1, mouse 5T4; test: flow cytometry, mouse 5T4-transfected cells
[3] = target: T2, human 5T4 on transfected cells; test: flow cytometry, CHO cells stably transfected with human 5T4
Procedure: (§2) Analysis of 5T4 mAb binding with flow cytometry was performed using 5T4-transfected cell lines and as negative control, mock transfected cells. Three different transfected cell lines used were used for this study; B16, A9 and CHO, transfected either with a 5T4 construct or with an empty vector control construct. Cells were stained with 5T4 antibodies diluted in FACS buffer (PBS, 0.5% BSA and 0.02% NaN₃). […] Samples were analysed either on a FACSCalibur or a FACSverse (BD Biosciences, Heidelberg, Germany) and mean fluorescence intensity (MFI) determined.
In a new attempt to calculate EC50 with flow cytometry a 5T4 mAb dose response experiment was performed using CHO cells stably transfected with human 5T4.

[4] = target: T2, human 5T4 on transfected cells; test: flow cytometry, 5T4-transfected B16 cells
Procedure: as §2

[5] = target: T2, human 5T4 on transfected cells; test: flow cytometry, 5T4-transfected A9 cells
Procedure: as §2

[6] = target: T3, 5T4-Fc; test: ELISA, plates coated with 5T4-Fc
Procedure: ELISA was performed using a standard protocol. Plates (#655074, Greiner Bio-One GmbH, Germany) were pre-coated with 0.5 μg/ml 5T4-Fc (obtained from Peter L. Stern, University of Manchester) overnight. 5T4 antibodies were diluted from 6 to 1.5×10⁻³ μg/ml in 1:4 dilutions and added in duplicates of 50 μl to each well. Binding was detected with rabbit anti-h kappa L-chain-HRP (P0129, Dako Denmark) and the ELISA was developed with SuperSignal ELISA PICO Chemiluminescent substrate (Thermo Scientific Pierce, Rockford, Ill. USA) for 2-10 minutes and read in an automated microplate based multi-detection reader (FLUOstar OPTIMA, Netherlands).

[7] = target: T5, cynomolgus 5T4; test: flow cytometry, CHO cells transfected with cynomolgus 5T4
Procedure: as §1

[8] = target: T4, 5T4 (immobilised for SPR); test: SPR MASS-1, biotinylated 5T4 on streptavidin chip, mAb injected, 1:1 Langmuir
Procedure: (§3) Binding kinetics of the 5T4-specific mAbs have been studied using two different SPR-based platforms, the Biacore 3000 (GE Healthcare) and the MASS-1 platform (Sierra Sensors). Briefly, 5T4 was captured at the sensor chip surface either via direct amine coupling (Biacore platform) or using a streptavidin coated chip and biotinylated 5T4 (MASS-1 platform). The different 5T4-specific mAbs were then injected over the chip in increasing concentrations and the association and dissociation rates studied in real time. A 1:1 Langmuir model was used for curve fitting.

[9] = target: T4, 5T4 (immobilised for SPR); test: SPR Biacore 3000, 5T4 amine-coupled, mAb injected, 1:1 Langmuir
Procedure: as §3

Binder | Ratio EC50cyno-5T4/h5T4 [1] [ratio] | binding result [2] | EC50 [3] [pM] | EC50 normalized to reference 1628 [3] | EC50 [4] [pM] | Normalized EC50 (to 1628) [4] | Normalized EC50 (to 1628) [5] | EC50 [6] [pM] | EC50 [7] [pM] | koff [8] [s⁻¹] | kon [8] [M⁻¹ s⁻¹] | Kd [9] [pM] | koff [9] [s⁻¹] | kon [9] [M⁻¹ s⁻¹]
1210/1211 (antibody, IgG1, V domains shown, 5T4 antibody) VH: not shown VL: DIQMTQSPSSLSASVGDRVTITCRASQSISSYLNWYQQKPGKAPKLLIYAASSLQSGVPSRFSGSGSGTDFTLTISSLQPEDFATYYCQQTYGYLHTFGQGTKLEIK | 0.9 | no binding | 810 | 1.6 ratio to 1628 | 800 | 1.6 ratio to 1628 | 1.8 ratio to 1628 | 480 | 700 | 0.00019 | 510000 | 200 | 0.0001 | 500000
1206/1207 (antibody, V domains shown, 5T4 antibody) VH: EVQLLESGGGLVQPGGSLRLSCAASGFTFSGSSMSWVRQAPGKGLEWVSSIYYSGSGTYYADSVKGRFTISRDNSKNTLYLQMNSLRAEDTAVYYCARYGRNVHPYNLDYWGQGTLVTVSS VL: DIQMTQSPSSLSASVGDRVTITCRASQSISSYLNWYQQKPGKAPKLLIYAASSLQSGVPSRFSGSGSGTDFTLTISSLQPEDFATYYCQQGYYYLPTFGQGTKLEIK | 3 | no binding | 510 | 1 ratio to 1628 | 1800 | 3.9 ratio to 1628 | 2.9 ratio to 1628 | 640 | 1530 | 0.00013 | 1.4e+06 | 2300 | 0.00028 | 130000

Reference: US20190161555A1 (ALLIGATOR BIOSCIENCE, published 2019)
